We go through 1 substance from patent US20140248641A1, “CLONED GLUCAGON-LIKE PEPTIDE-2 RECEPTORS” (NPS PHARMACEUTICALS, INC., priority 1997, published 2014).

Substitutions are numbered along the chain they refer to.

Common to all, as to type: cell-based
Test [1] addresses T1, cloned residue 85 variant human GLP-2 receptor (Homo sapiens, UniProt O95838, R85E).
T1 construct: Myc-His (from vector pcDNA3.1(-)/Myc-His A) (C); expressed in transfected cells; host or cells: COS-1
T1 sequence (O95838 1-553 R85E): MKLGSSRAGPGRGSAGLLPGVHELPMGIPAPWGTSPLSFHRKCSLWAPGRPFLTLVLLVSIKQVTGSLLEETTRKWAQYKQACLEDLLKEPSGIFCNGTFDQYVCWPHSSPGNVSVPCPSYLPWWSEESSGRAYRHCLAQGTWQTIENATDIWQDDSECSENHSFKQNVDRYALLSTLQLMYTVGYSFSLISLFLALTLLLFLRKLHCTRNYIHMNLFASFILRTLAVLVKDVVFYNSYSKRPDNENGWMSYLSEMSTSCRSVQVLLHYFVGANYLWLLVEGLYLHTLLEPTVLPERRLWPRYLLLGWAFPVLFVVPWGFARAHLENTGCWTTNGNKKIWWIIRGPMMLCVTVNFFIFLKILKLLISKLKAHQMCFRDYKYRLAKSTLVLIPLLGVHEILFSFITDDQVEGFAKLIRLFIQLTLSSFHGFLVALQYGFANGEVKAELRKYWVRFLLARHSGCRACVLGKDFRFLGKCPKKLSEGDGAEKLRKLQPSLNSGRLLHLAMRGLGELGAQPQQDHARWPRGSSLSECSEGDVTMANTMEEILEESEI
Nature of the test: cAMP functional assay in transfected COS-1 cells, residue 85 variant human GLP-2 receptor. Particulars: hybrid clone pc3.1/HuGL2R/MH6 with 2 bp GA replacement (Glu85 variant). The procedure:
Rat GLP-1 (7-36) amide was used as a control peptide. Solutions used were as follows:
(§1) RSC in RPMI 1640 (49 ml RPMI+1 ml FCS+5)0 ulchloroquine, 100 mM); DEAE/RSC Solution: 18.4 ml RSC+1.6 ml DEAE/Dextran (10 mg/ml).
The assay procedure entailed the following:
a) […] of either rat clone 587 GLP-2 receptor, or cloned human GLP-2 receptor, or cloned residue 85 variant human GLP-2 receptor was added (as plasmid pcDNA3) to a 50 ml tube containing six mls. of RSC and incubated at 37° C. b) Six ml of DEAE/RSC solution was added to each tube and incubated at 37° C. for 2 min. c) 1.5 ml of COS-1 cell suspension (5.5 millions cells) was added to each tube and incubated for 1 hr 45 min at 37° C. d) Following incubation, the sample was spun for 5 minutes at low speed, washed with DMEM/F12+10% FBS twice, and the pellet resuspended in 12.5 ml DMEM/F12+10% FBS media. e) One ml of cell suspension (step d) was added to each well of 6 well plates coated with poly-D-lysine (from Collaborative Biomedical), containing 3 ml of media (0.45 million cells/well). f) Plates were incubated at 37° C. for 3 days.
Media was prepared fresh on day of use. […]
(§2) The functional assay was performed as follows: cAMP content for each extract was determined in duplicate by EIA (Enzyme ImmunoAssay) using the Amersham Biotrak cAMP EIA Kit (Amersham 225). […]

The target in test [2] is T2, cloned human GLP-2 receptor (pC3/HuGL2R-2) (Homo sapiens, UniProt O95838).
T2 construct: expressed in transfected cells; host or cells: COS-1
T2 sequence (O95838 1-553): T1 sequence (O95838 1-553 R85E) with E85R
Nature of the test: cAMP functional assay in transfected COS-1 cells, human GLP-2 receptor. The following applies: FIG. 8. How it is done:
(§3) Cos-1 cells were transfected as described in Analytical Biochemistry, 218:460-463(1994) with Rat clone 587 GLP-2 receptor, cloned human GLP-2 receptor (pC3/HuGL2R-2), or cloned residue 85 variant human GLP-2 receptor (pC3.1/HuGL2R-MH4), pcDNA3. Rat GLP-1 (7-36) amide was used as a control peptide. Solutions used were as follows:
as §1
(§4) The assay procedure entailed the following: […]
as §2

Test [3] deals with T3, Rat clone 587 GLP-2 receptor (Rattus norvegicus, UniProt Q9Z0W0).
T3 construct: one which primed starting 4 bp upstream of the initiation codon and another which primed starting 8 bp downstream of the stop codon; expressed in transfected cells; host or cells: COS-1
T3 sequence (Q9Z0W0 1-550): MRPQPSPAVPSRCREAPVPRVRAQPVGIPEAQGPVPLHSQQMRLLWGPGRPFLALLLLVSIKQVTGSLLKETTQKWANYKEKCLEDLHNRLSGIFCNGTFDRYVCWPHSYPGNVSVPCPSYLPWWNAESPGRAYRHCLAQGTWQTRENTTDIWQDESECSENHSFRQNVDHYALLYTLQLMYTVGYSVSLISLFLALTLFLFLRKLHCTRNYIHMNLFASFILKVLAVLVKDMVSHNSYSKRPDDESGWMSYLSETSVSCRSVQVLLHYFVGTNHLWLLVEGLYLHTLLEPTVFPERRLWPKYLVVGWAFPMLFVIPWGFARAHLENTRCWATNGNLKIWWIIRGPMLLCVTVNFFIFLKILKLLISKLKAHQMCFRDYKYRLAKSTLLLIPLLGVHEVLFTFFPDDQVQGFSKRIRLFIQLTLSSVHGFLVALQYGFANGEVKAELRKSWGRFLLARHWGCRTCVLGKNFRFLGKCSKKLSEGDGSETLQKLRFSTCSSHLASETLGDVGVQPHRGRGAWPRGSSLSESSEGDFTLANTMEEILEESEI
Put plainly: cAMP functional assay in transfected COS-1 cells, rat GLP-2 receptor. The procedure: as §3, §1, §4
The functional assay was performed as follows: cAMP content for each extract was determined in duplicate by EIA (Enzyme ImmunoAssay) using the Amersham Biotrak cAMP EIA Kit (Amersham 225).

Test [4] has as its system HHT13 clones (human GLP-2R cDNA with frame-shift mutation). Put plainly: cAMP functional assay in COS cells transfected with HHT13 clones. The following applies: COS cells transfected with pHHT13-1, pHHT13-2, pHHT13-3. The procedure: Transfections were carried out with each clone, using the rat GLP-2R, 587 clone as a positive control for cAMP response to GLP-2 peptide. Methods for transfection, cell culture and cAMP assay were identical to those described for the functional assay of rat, 587 clone.

For Glucagon-like peptide-2 [GLP-2], the “cAMP response to GLP-2 treatment” value in test [1] is “cAMP response”. In addition, the “cAMP production in response to GLP-2 treatment” value in test [2] (COS cells transfected with pc3/HuGL2R-2) was “cAMP production”. Besides, the “selectivity of receptor for GLP-2 over GLP-1 (cAMP)” value is reported as “GLP-2 selectivity” in test [2] (cloned human receptor, peptides at 1, 3, 10 and 30 nM, 30 min); “GLP-2 selectivity” in test [3] (cloned rat receptor, peptides at 1, 3, 10 and 30 nM, 30 min, FIG. 3). In addition, the “cAMP response to GLP-2 peptide” value in test [3] (COS cells transfected with rat GLP-2R 587 clone (positive control), cAMP EIA) is recorded as “good cAMP response”; in test [4], “none of the HHT13 clones gave any cAMP response”.
